The source of these data is the RNAGym collection of RNA variant scans (doi:10.7554/elife.80360).

The labels stand for the following.
B1: HDV Ribozyme (parent)
chain: GGCCGGCAUGGUCCCAGCCUCCUCGCUGGCGCCGGCUGGGCAACAUUCCGAGGGGACCGUCCCCUCGGUAAUGGCGAAUGGGACCCA

Variants of B1 are the subject of this data set. The data set is described as follows: self-cleavage, relative activity (ratio to wild type); higher = more cleavage; co-transcriptional.
On to GGCCGGCCUGGUCCCAGCCUACUCGCUGGCGCCGGCUGGGCAACAUUCCGAGGGGACCGUCCCCUCGGUAAUGGCGAAUGGGACCCA, for which the self-cleavage came to 0.0449. In the case of GGCCGGCCUGGUCCCAGCCUCCUCGCUGGCGCUGGCUGGGCAACAUUCCGAGGGGACCGUCCCCUCGGUAAUGGCGAAUGGGACCCA, the self-cleavage is 0.554.

Regarding GGCCGGCCUGGUCCCAGCCUCCUCGCUGGCGCAGGCUGGGCAACAUUCCGAGGGGACCGUCCCCUCGGUAAUGGCGAAUGGGACCCA, the self-cleavage came out at 0.0504. For the variant GGCCGGCCUGGUCCCAGCCUCCUCGCUGGCGCCGGCUCGGCAACAUUCCGAGGGGACCGUCCCCUCGGUAAUGGCGAAUGGGACCCA, the self-cleavage was determined as 0.0978. As for GGCCGGCCUGGUCCCAGCCUCCUCGCUGGCGCCGGCUAGGCAACAUUCCGAGGGGACCGUCCCCUCGGUAAUGGCGAAUGGGACCCA, the self-cleavage worked out at 0.0369. Take GGCCGGCCUGGUCCCAGCCUCCUCGCUGGCGCCGGCUGGGCAACAUUCCGAGGGGACAGUCCCCUCGGUAAUGGCGAAUGGGACCCA: the self-cleavage was determined as 0.692. With GGCCGGCCUGGUCCCAGCCUCCUCGCUGGCGCCGGCUGGGCAACAUUCCGAGGGGACGGUCCCCUCGGUAAUGGCGAAUGGGACCCA, the self-cleavage amounted to 0.68. Turning to GGCCGGCCUGGUCCCAGCCUCCUCGCUGGCGCCGGGUGGGCAACAUUCCGAGGGGACCGUCCCCUCGGUAAUGGCGAAUGGGACCCA, the self-cleavage was determined as 0. As for GGCCGGCCUGGUCCCAGCCUCCUCGCUGGCGCCGGAUGGGCAACAUUCCGAGGGGACCGUCCCCUCGGUAAUGGCGAAUGGGACCCA, the self-cleavage stood at 0.

Regarding GGCCGGCCUGAUCCCAGCCUCCUCGCUGGCGCCGGCUGGGCAACAUUCCGAGGGGACCGUCCCCUCGGUAAUGGCGAAUGGGACCCA, the self-cleavage was 0.229.

Take GGCCGGCCUGCUCCCAGCCUCCUCGCUGGCGCCGGCUGGGCAACAUUCCGAGGGGACCGUCCCCUCGGUAAUGGCGAAUGGGACCCA: the self-cleavage turned out to be 0.151. On to GGCCGGCCUGGUCCCAGCCUCCUCGCUGGCGCCGGCUGGGCAACAUUCCGAGGCGACCGUCCCCUCGGUAAUGGCGAAUGGGACCCA, for which the self-cleavage worked out at 0.746.

As to GGCCGGCCUGGUCCCAGCCUCGUCGCUGGCGCCGGCUGGGCAACAUUCCGAGGGGACCGUCCCCUCGGUAAUGGCGAAUGGGACCCA, the self-cleavage came to 0.0791. Take GGCCGGCCUGGUCCCAGCCUCCUCGCUGGCGCCGGCUGGGCAACAUUCCGAGCGGACCGUCCCCUCGGUAAUGGCGAAUGGGACCCA: the self-cleavage came out at 0.739. Regarding GGCCGGCCUGGUCCCAGCCUCCUCGCUGGCGCCUGCUGGGCAACAUUCCGAGGGGACCGUCCCCUCGGUAAUGGCGAAUGGGACCCA, the self-cleavage came out at 0.104. For GGCCGGCCUGGUCCCAGCCUCCUCGCUGGCGCCCGCUGGGCAACAUUCCGAGGGGACCGUCCCCUCGGUAAUGGCGAAUGGGACCCA, the self-cleavage was determined as 0.178. As for GGCCGGCCUGGUCCCAGCCUCCUCGAUGGCGCCGGCUGGGCAACAUUCCGAGGGGACCGUCCCCUCGGUAAUGGCGAAUGGGACCCA, the self-cleavage stood at 0.629.

GGCCGGCCUGGUCCCAGCCUCCUCGCUGGCGCCGGCUGGGCAACAUUCCGAUGGGACCGUCCCCUCGGUAAUGGCGAAUGGGACCCA: the self-cleavage was determined as 0.566. As for GGCCGGCCUGGUCCCAGCCUCCUCGCUGGCGCCGGCUGGGCAACAUUCCGAAGGGACCGUCCCCUCGGUAAUGGCGAAUGGGACCCA, the self-cleavage stood at 0.831. To GGCCGGCCUGGUCCCAGCCUCCUUGCUGGCGCCGGCUGGGCAACAUUCCGAGGGGACCGUCCCCUCGGUAAUGGCGAAUGGGACCCA belongs 0.396; to GGCCGGCCUGGUCCCAGCCUCCUAGCUGGCGCCGGCUGGGCAACAUUCCGAGGGGACCGUCCCCUCGGUAAUGGCGAAUGGGACCCA, 0.434. As for GGCCGGCCUGGUCCCAGCCUCCUCGCUGGCGCCGGCUGGGCAACAUUCCGAGGGGACCGUCCCCUGGGUAAUGGCGAAUGGGACCCA, the self-cleavage is 0.997. With GGCCGGCCUGGUCCCAGCCUCCUCGCUGGCGCCGGCUGGGCAACAUUCCGAGGGGACCGUCCCCUUGGUAAUGGCGAAUGGGACCCA, the self-cleavage was determined as 0.76. On to GGCCGGCCUGGUCCCAGCCUCCUCGCUGGCGCCGGCUGGGCAAGAUUCCGAGGGGACCGUCCCCUCGGUAAUGGCGAAUGGGACCCA, for which the self-cleavage worked out at 0.401.

With GGCCGGCCUGGUCCCAGCCUCCUCGCUGGCGCCGGCUGGGCAAAAUUCCGAGGGGACCGUCCCCUCGGUAAUGGCGAAUGGGACCCA, the self-cleavage turned out to be 0.222. As for GGCCGGCCUGGUCCCAGCCUCCUCGCUGGCGCCGGCUGGGCAACAUUCCCAGGGGACCGUCCCCUCGGUAAUGGCGAAUGGGACCCA, the self-cleavage was determined as 1.04. As for GGCCGGCCUGGUCCCAGCCUCCUCGCUGGCGCCGGCUGGGCAACAUUCCUAGGGGACCGUCCCCUCGGUAAUGGCGAAUGGGACCCA, the self-cleavage was determined as 0.864. For GGCCGGCCUGGUCCCAGCCUCCUCGCUGGCGCCGGCUGGGCAACAUUCCGAGGGGACCGUUCCCUCGGUAAUGGCGAAUGGGACCCA, the self-cleavage is 0.643.

As to GGCCGGCCUGGUCCCACCCUCCUCGCUGGCGCCGGCUGGGCAACAUUCCGAGGGGACCGUCCCCUCGGUAAUGGCGAAUGGGACCCA, the self-cleavage is 0. In the case of GGCCGGCCUGGUCCCAGCCUCCUCGCUGGGGCCGGCUGGGCAACAUUCCGAGGGGACCGUCCCCUCGGUAAUGGCGAAUGGGACCCA, the self-cleavage was 0.

As to GGCCGGCCUGGUCCCAGCCUCCUCGCUGGCGCCGGCUGGGCAACAUUCCGAGGGGACCGUCCUCUCGGUAAUGGCGAAUGGGACCCA, the self-cleavage was found to be 0.633.

Regarding GGCCGGCCUGGUCCCAGCCUCCUCGCUGGCGCCGGCUGGGUAACAUUCCGAGGGGACCGUCCCCUCGGUAAUGGCGAAUGGGACCCA, the self-cleavage came out at 0.748.
